Biological target: native MSP-3 antigen of Plasmodium falciparum clone 3D7 schizonts and merozoites (Plasmodium falciparum)
Experiment: flow cytometry on ethanol-fixed permeabilized schizonts, FITC anti-human Fab

| percent of events under the bar M1 [%] | Substance |
| --- | --- |
| 2 | control Fab against HibCP |
| 4 | control antibody against HibCP in the IgG1 format |
